Measurements: the RNAGym collection of RNA variant scans (doi:10.1021/acssynbio.7b00057)

B1: Pistol ribozyme (parent)
chain: GGGUCGUUGUUCCAUAAUCGCGUGGAUAUGGCACGCAAGUUUCUACCGGGCACCGUAAAUGUCCGACUGGAGCCGUUCGGGCGGCUAUAAACAGACCUCAGGCCCGAAGCGUGGCGGCACCUGCCGCCGGUGGUAAAAAAGAUCGGAAGAGCACACGUCU

Variants of: B1
Experiment: aptazyme ON/OFF ratio, guanine; higher = stronger switching; co-transcriptional cleavage with and without guanine

Row | Variant | aptazyme ON/OFF ratio
1 | GGGUCGGGCGCACAUAAUCGCGUGGAUAUGGCACGCAAGUUUCUACCGGGCACCGUAAAUGUCCGACUGGAGCCGUUCGGGCGGCUAUAAACAGACCUCAGGCCCGAAGCGUGGCGGCACCUGCCGCCGGUGGUAAAAAAGAUCGGAAGAGCACACGUCU [U7G U8G G9C U10G U11C C12A] | 1.25
2 | GGGUCGGGCGUACAUAAUCGCGUGGAUAUGGCACGCAAGUUUCUACCGGGCACCGUAAAUGUCCGACUGGAGCCGUUCGGGCGGCUAUAAACAGACCUCAGGCCCGAAGCGUGGCGGCACCUGCCGCCGGUGGUAAAAAAGAUCGGAAGAGCACACGUCU [U7G U8G G9C U10G C12A] | 1.14
3 | GGGUCGGGCGUUCAUAAUCGCGUGGAUAUGGCACGCAAGUUUCUACCGGGCACCGUAAAUGUCCGACUGGAGCCGUUCGGGCGGCUAUAAACAGACCUCAGGCCCGAAGCGUGGCGGCACCUGCCGCCGGUGGUAAAAAAGAUCGGAAGAGCACACGUCU [U7G U8G G9C U10G C12U] | 1.17
4 | GGGUCGGGCGUGCAUAAUCGCGUGGAUAUGGCACGCAAGUUUCUACCGGGCACCGUAAAUGUCCGACUGGAGCCGUUCGGGCGGCUAUAAACAGACCUCAGGCCCGAAGCGUGGCGGCACCUGCCGCCGGUGGUAAAAAAGAUCGGAAGAGCACACGUCU [U7G U8G G9C U10G C12G] | 1.21
5 | GGGUCGGGCGUAAAUAAUCGCGUGGAUAUGGCACGCAAGUUUCUACCGGGCACCGUAAAUGUCCGACUGGAGCCGUUCGGGCGGCUAUAAACAGACCUCAGGCCCGAAGCGUGGCGGCACCUGCCGCCGGUGGUAAAAAAGAUCGGAAGAGCACACGUCU [U7G U8G G9C U10G C12A C13A] | 1.07
6 | GGGUCGGGCGUAUAUAAUCGCGUGGAUAUGGCACGCAAGUUUCUACCGGGCACCGUAAAUGUCCGACUGGAGCCGUUCGGGCGGCUAUAAACAGACCUCAGGCCCGAAGCGUGGCGGCACCUGCCGCCGGUGGUAAAAAAGAUCGGAAGAGCACACGUCU [U7G U8G G9C U10G C12A C13U] | 1.14
7 | GGGUCGGGCGUAGAUAAUCGCGUGGAUAUGGCACGCAAGUUUCUACCGGGCACCGUAAAUGUCCGACUGGAGCCGUUCGGGCGGCUAUAAACAGACCUCAGGCCCGAAGCGUGGCGGCACCUGCCGCCGGUGGUAAAAAAGAUCGGAAGAGCACACGUCU [U7G U8G G9C U10G C12A C13G] | 1.06
8 | GGGUCGGGCGUCCAUAAUCGCGUGGAUAUGGCACGCAAGUUUCUACCGGGCACCGUAAAUGUCCGACUGGAGCCGUUCGGGCGGCUAUAAACAGACCUCAGGCCCGAAGCGUGGCGGCACCUGCCGCCGGUGGUAAAAAAGAUCGGAAGAGCACACGUCU [U7G U8G G9C U10G] | 1.74
9 | GGGUCGGGCGAGCAUAAUCGCGUGGAUAUGGCACGCAAGUUUCUACCGGGCACCGUAAAUGUCCGACUGGAGCCGUUCGGGCGGCUAUAAACAGACCUCAGGCCCGAAGCGUGGCGGCACCUGCCGCCGGUGGUAAAAAAGAUCGGAAGAGCACACGUCU [U7G U8G G9C U10G U11A C12G] | 1.16
10 | GGGUCGGGCGAUCAUAAUCGCGUGGAUAUGGCACGCAAGUUUCUACCGGGCACCGUAAAUGUCCGACUGGAGCCGUUCGGGCGGCUAUAAACAGACCUCAGGCCCGAAGCGUGGCGGCACCUGCCGCCGGUGGUAAAAAAGAUCGGAAGAGCACACGUCU [U7G U8G G9C U10G U11A C12U] | 1.23
11 | GGGUCGGGCGAACAUAAUCGCGUGGAUAUGGCACGCAAGUUUCUACCGGGCACCGUAAAUGUCCGACUGGAGCCGUUCGGGCGGCUAUAAACAGACCUCAGGCCCGAAGCGUGGCGGCACCUGCCGCCGGUGGUAAAAAAGAUCGGAAGAGCACACGUCU [U7G U8G G9C U10G U11A C12A] | 1.17
12 | GGGUCGGGCCGCUAUAAUCGCGUGGAUAUGGCACGCAAGUUUCUACCGGGCACCGUAAAUGUCCGACUGGAGCCGUUCGGGCGGCUAUAAACAGACCUCAGGCCCGAAGCGUGGCGGCACCUGCCGCCGGUGGUAAAAAAGAUCGGAAGAGCACACGUCU [U7G U8G G9C U10C U11G C13U] | 1.3
13 | GGGUCGGGCGAGAAUAAUCGCGUGGAUAUGGCACGCAAGUUUCUACCGGGCACCGUAAAUGUCCGACUGGAGCCGUUCGGGCGGCUAUAAACAGACCUCAGGCCCGAAGCGUGGCGGCACCUGCCGCCGGUGGUAAAAAAGAUCGGAAGAGCACACGUCU [U7G U8G G9C U10G U11A C12G C13A] | 1.06
14 | GGGUCGGGCGAGUAUAAUCGCGUGGAUAUGGCACGCAAGUUUCUACCGGGCACCGUAAAUGUCCGACUGGAGCCGUUCGGGCGGCUAUAAACAGACCUCAGGCCCGAAGCGUGGCGGCACCUGCCGCCGGUGGUAAAAAAGAUCGGAAGAGCACACGUCU [U7G U8G G9C U10G U11A C12G C13U] | 1.16
15 | GGGUCGGGCGAGGAUAAUCGCGUGGAUAUGGCACGCAAGUUUCUACCGGGCACCGUAAAUGUCCGACUGGAGCCGUUCGGGCGGCUAUAAACAGACCUCAGGCCCGAAGCGUGGCGGCACCUGCCGCCGGUGGUAAAAAAGAUCGGAAGAGCACACGUCU [U7G U8G G9C U10G U11A C12G C13G] | 1.12
16 | GGGUCGGGCGACCAUAAUCGCGUGGAUAUGGCACGCAAGUUUCUACCGGGCACCGUAAAUGUCCGACUGGAGCCGUUCGGGCGGCUAUAAACAGACCUCAGGCCCGAAGCGUGGCGGCACCUGCCGCCGGUGGUAAAAAAGAUCGGAAGAGCACACGUCU [U7G U8G G9C U10G U11A] | 1.32
17 | GGGUCGGGCGCCCAUAAUCGCGUGGAUAUGGCACGCAAGUUUCUACCGGGCACCGUAAAUGUCCGACUGGAGCCGUUCGGGCGGCUAUAAACAGACCUCAGGCCCGAAGCGUGGCGGCACCUGCCGCCGGUGGUAAAAAAGAUCGGAAGAGCACACGUCU [U7G U8G G9C U10G U11C] | 1.06
18 | GGGUCGGGCGACAAUAAUCGCGUGGAUAUGGCACGCAAGUUUCUACCGGGCACCGUAAAUGUCCGACUGGAGCCGUUCGGGCGGCUAUAAACAGACCUCAGGCCCGAAGCGUGGCGGCACCUGCCGCCGGUGGUAAAAAAGAUCGGAAGAGCACACGUCU [U7G U8G G9C U10G U11A C13A] | 1.1

Row | Variant | aptazyme ON/OFF ratio
19 | GGGUCGGGCGACGAUAAUCGCGUGGAUAUGGCACGCAAGUUUCUACCGGGCACCGUAAAUGUCCGACUGGAGCCGUUCGGGCGGCUAUAAACAGACCUCAGGCCCGAAGCGUGGCGGCACCUGCCGCCGGUGGUAAAAAAGAUCGGAAGAGCACACGUCU [U7G U8G G9C U10G U11A C13G] | 1.05
20 | GGGUCGGGCGACUAUAAUCGCGUGGAUAUGGCACGCAAGUUUCUACCGGGCACCGUAAAUGUCCGACUGGAGCCGUUCGGGCGGCUAUAAACAGACCUCAGGCCCGAAGCGUGGCGGCACCUGCCGCCGGUGGUAAAAAAGAUCGGAAGAGCACACGUCU [U7G U8G G9C U10G U11A C13U] | 1.12
21 | GGGUCGGGCGUCUAUAAUCGCGUGGAUAUGGCACGCAAGUUUCUACCGGGCACCGUAAAUGUCCGACUGGAGCCGUUCGGGCGGCUAUAAACAGACCUCAGGCCCGAAGCGUGGCGGCACCUGCCGCCGGUGGUAAAAAAGAUCGGAAGAGCACACGUCU [U7G U8G G9C U10G C13U] | 1.26
22 | GGGUCGGGCGUCGAUAAUCGCGUGGAUAUGGCACGCAAGUUUCUACCGGGCACCGUAAAUGUCCGACUGGAGCCGUUCGGGCGGCUAUAAACAGACCUCAGGCCCGAAGCGUGGCGGCACCUGCCGCCGGUGGUAAAAAAGAUCGGAAGAGCACACGUCU [U7G U8G G9C U10G C13G] | 1.28
23 | GGGUCGGGCGUCAAUAAUCGCGUGGAUAUGGCACGCAAGUUUCUACCGGGCACCGUAAAUGUCCGACUGGAGCCGUUCGGGCGGCUAUAAACAGACCUCAGGCCCGAAGCGUGGCGGCACCUGCCGCCGGUGGUAAAAAAGAUCGGAAGAGCACACGUCU [U7G U8G G9C U10G C13A] | 1.31
24 | GGGUCGGGCGAAAAUAAUCGCGUGGAUAUGGCACGCAAGUUUCUACCGGGCACCGUAAAUGUCCGACUGGAGCCGUUCGGGCGGCUAUAAACAGACCUCAGGCCCGAAGCGUGGCGGCACCUGCCGCCGGUGGUAAAAAAGAUCGGAAGAGCACACGUCU [U7G U8G G9C U10G U11A C12A C13A] | 1.14
25 | GGGUCGGGCGAAGAUAAUCGCGUGGAUAUGGCACGCAAGUUUCUACCGGGCACCGUAAAUGUCCGACUGGAGCCGUUCGGGCGGCUAUAAACAGACCUCAGGCCCGAAGCGUGGCGGCACCUGCCGCCGGUGGUAAAAAAGAUCGGAAGAGCACACGUCU [U7G U8G G9C U10G U11A C12A C13G] | 1.12
26 | GGGUCGGGCGAAUAUAAUCGCGUGGAUAUGGCACGCAAGUUUCUACCGGGCACCGUAAAUGUCCGACUGGAGCCGUUCGGGCGGCUAUAAACAGACCUCAGGCCCGAAGCGUGGCGGCACCUGCCGCCGGUGGUAAAAAAGAUCGGAAGAGCACACGUCU [U7G U8G G9C U10G U11A C12A C13U] | 1.11
27 | GGGUCGGGCGCAAAUAAUCGCGUGGAUAUGGCACGCAAGUUUCUACCGGGCACCGUAAAUGUCCGACUGGAGCCGUUCGGGCGGCUAUAAACAGACCUCAGGCCCGAAGCGUGGCGGCACCUGCCGCCGGUGGUAAAAAAGAUCGGAAGAGCACACGUCU [U7G U8G G9C U10G U11C C12A C13A] | 1.1
28 | GGGUCGGGCGAUAAUAAUCGCGUGGAUAUGGCACGCAAGUUUCUACCGGGCACCGUAAAUGUCCGACUGGAGCCGUUCGGGCGGCUAUAAACAGACCUCAGGCCCGAAGCGUGGCGGCACCUGCCGCCGGUGGUAAAAAAGAUCGGAAGAGCACACGUCU [U7G U8G G9C U10G U11A C12U C13A] | 1.13
29 | GGGUCGGGCGAUGAUAAUCGCGUGGAUAUGGCACGCAAGUUUCUACCGGGCACCGUAAAUGUCCGACUGGAGCCGUUCGGGCGGCUAUAAACAGACCUCAGGCCCGAAGCGUGGCGGCACCUGCCGCCGGUGGUAAAAAAGAUCGGAAGAGCACACGUCU [U7G U8G G9C U10G U11A C12U C13G] | 1.1
30 | GGGUCGGGCGAUUAUAAUCGCGUGGAUAUGGCACGCAAGUUUCUACCGGGCACCGUAAAUGUCCGACUGGAGCCGUUCGGGCGGCUAUAAACAGACCUCAGGCCCGAAGCGUGGCGGCACCUGCCGCCGGUGGUAAAAAAGAUCGGAAGAGCACACGUCU [U7G U8G G9C U10G U11A C12U C13U] | 1.1
31 | GGGUCGGGCGUUUAUAAUCGCGUGGAUAUGGCACGCAAGUUUCUACCGGGCACCGUAAAUGUCCGACUGGAGCCGUUCGGGCGGCUAUAAACAGACCUCAGGCCCGAAGCGUGGCGGCACCUGCCGCCGGUGGUAAAAAAGAUCGGAAGAGCACACGUCU [U7G U8G G9C U10G C12U C13U] | 1.09
32 | GGGUCGGGCGUUAAUAAUCGCGUGGAUAUGGCACGCAAGUUUCUACCGGGCACCGUAAAUGUCCGACUGGAGCCGUUCGGGCGGCUAUAAACAGACCUCAGGCCCGAAGCGUGGCGGCACCUGCCGCCGGUGGUAAAAAAGAUCGGAAGAGCACACGUCU [U7G U8G G9C U10G C12U C13A] | 1.06
33 | GGGUCGGGCGUUGAUAAUCGCGUGGAUAUGGCACGCAAGUUUCUACCGGGCACCGUAAAUGUCCGACUGGAGCCGUUCGGGCGGCUAUAAACAGACCUCAGGCCCGAAGCGUGGCGGCACCUGCCGCCGGUGGUAAAAAAGAUCGGAAGAGCACACGUCU [U7G U8G G9C U10G C12U C13G] | 1.05
34 | GGGUCGGGCGUGUAUAAUCGCGUGGAUAUGGCACGCAAGUUUCUACCGGGCACCGUAAAUGUCCGACUGGAGCCGUUCGGGCGGCUAUAAACAGACCUCAGGCCCGAAGCGUGGCGGCACCUGCCGCCGGUGGUAAAAAAGAUCGGAAGAGCACACGUCU [U7G U8G G9C U10G C12G C13U] | 1.2
35 | GGGUCGGGCGUGAAUAAUCGCGUGGAUAUGGCACGCAAGUUUCUACCGGGCACCGUAAAUGUCCGACUGGAGCCGUUCGGGCGGCUAUAAACAGACCUCAGGCCCGAAGCGUGGCGGCACCUGCCGCCGGUGGUAAAAAAGAUCGGAAGAGCACACGUCU [U7G U8G G9C U10G C12G C13A] | 1.11
36 | GGGUCGGGCGUGGAUAAUCGCGUGGAUAUGGCACGCAAGUUUCUACCGGGCACCGUAAAUGUCCGACUGGAGCCGUUCGGGCGGCUAUAAACAGACCUCAGGCCCGAAGCGUGGCGGCACCUGCCGCCGGUGGUAAAAAAGAUCGGAAGAGCACACGUCU [U7G U8G G9C U10G C12G C13G] | 1.12
